Measured values reported in doi:10.1101/2020.03.02.973859.

Biological target: T1, K+/Cl- co-transporter KCC2 (mouse (endogenous in mouse forebrain)), Q91V14
T1 chain: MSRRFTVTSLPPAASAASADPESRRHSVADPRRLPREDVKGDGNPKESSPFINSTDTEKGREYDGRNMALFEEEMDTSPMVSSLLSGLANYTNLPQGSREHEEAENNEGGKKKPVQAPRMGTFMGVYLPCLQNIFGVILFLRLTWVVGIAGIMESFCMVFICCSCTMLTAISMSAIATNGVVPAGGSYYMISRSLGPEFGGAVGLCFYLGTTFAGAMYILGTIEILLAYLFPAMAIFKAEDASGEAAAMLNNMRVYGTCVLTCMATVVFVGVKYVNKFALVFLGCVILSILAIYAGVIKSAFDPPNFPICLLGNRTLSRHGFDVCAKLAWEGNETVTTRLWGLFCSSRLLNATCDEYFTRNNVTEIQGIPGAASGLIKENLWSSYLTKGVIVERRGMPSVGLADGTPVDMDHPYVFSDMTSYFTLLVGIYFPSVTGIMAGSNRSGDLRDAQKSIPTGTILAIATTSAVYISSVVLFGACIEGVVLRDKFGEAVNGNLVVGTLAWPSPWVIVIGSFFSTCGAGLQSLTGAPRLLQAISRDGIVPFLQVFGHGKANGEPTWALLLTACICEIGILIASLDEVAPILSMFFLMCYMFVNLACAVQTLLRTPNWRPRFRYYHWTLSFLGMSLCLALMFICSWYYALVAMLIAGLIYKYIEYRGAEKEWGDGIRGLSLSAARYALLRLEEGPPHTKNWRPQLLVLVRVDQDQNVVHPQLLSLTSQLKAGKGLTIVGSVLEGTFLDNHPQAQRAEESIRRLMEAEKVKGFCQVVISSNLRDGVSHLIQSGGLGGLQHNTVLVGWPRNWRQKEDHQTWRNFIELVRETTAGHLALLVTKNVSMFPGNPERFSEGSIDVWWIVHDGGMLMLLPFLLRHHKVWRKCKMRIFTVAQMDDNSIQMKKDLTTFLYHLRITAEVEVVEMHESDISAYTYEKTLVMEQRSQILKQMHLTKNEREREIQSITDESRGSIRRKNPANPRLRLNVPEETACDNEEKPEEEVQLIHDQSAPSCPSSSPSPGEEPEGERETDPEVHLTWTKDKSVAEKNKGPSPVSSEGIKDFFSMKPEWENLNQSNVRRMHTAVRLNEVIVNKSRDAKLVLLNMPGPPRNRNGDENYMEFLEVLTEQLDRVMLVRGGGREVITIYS
Experiment: native gel or EMSA
Conditions: remark: other sources report otherwise

stoichiometry N: 2
B1: K+/Cl- co-transporter KCC2, Q91V14 1-1138 (natural protein)
chain: T1 chain
